B1: Q99LD8 (protein, UniProt Q99LD8 1-285, looked up)
chain: MGTPGEGLGRCSHALIRGVPESLASGEGAGAGLPALDLAKAQREHGVLGGKLRQRLGLQLLELPPEESLPLGPLLGDTAVIQGDTALITRPWSPARRPEVDGVRKALQDLGLRIVEMGDENATLDGTDVLFTGREFFVGLSKWTNHRGAEIVADTFRDFAVSTVPVSGSSHLRGLCGMGGPRTVVAGSSEAAQKAVRAMAALTDHPYASLTLPDDAASDCLFLRPGLPGATPFLLHRGGGDLPNSQEALQKLSDVTLVPVSCSELEKAGAGLSSLCLVLSTRPHC
modifications: full-length
B2: Q99PG0 (protein, UniProt Q99PG0 1-398, looked up)
chain: MGKTISLLISVVLVAYYLYIPLPDAIEEPWKVVWETAFVKIGTDLASFGELLGISHFMETIQLLMSFQEVPPTSDEHVTVMETAFDSVPVRIYIPKRKSMALRRGLFYIHGGGWCLGSAAHFSYDTLSRWTAHKLDAVVVSTDYGLAPKHHFPRQFEDVYRSLRWFLQEDVLEKYGVDPRRVGVSGDSAGGNLAAAVTQQLIQDPDVKIKLKVQALIYPALQALDTNVPSQQEGSHFPVLTRSLMVRFWSEYFTTDRGLEKAMLLNQHVPMESSHLLQFVNWSSLLPERYKKSPVYKNPTPGSSELAQKYPGFIDVKACPLLANDNILHHLPKTYIITCQYDVLRDDGLMYVKRLQNVGVHVTHHHVEDGFHGTFSFPGLKLSERMKNQYLSWLIKNL
modifications: full-length
B3: Q99LZ3 (protein, UniProt Q99LZ3 1-223, looked up)
chain: MTEVLDLHGQDSDGGSEEMVLTPAELIEKLEQAWMNEKFAPELLESKAEIVECVMEQLEHMEENLRRAKKGDLKVSIHRMEMERIRYVLSSYLRCRLMKIEKFFPHILEKEKVRSEGEPSSLSPEEFVFAKEYMDHTETHFKNVALKHMPPNLQKVDLLRAVPKPDLDSYVFLRVKERQENILVEPEADEQRDYVIDLEVGSQHLIRYKTIAPLVASGAVQLI
modifications: full-length
B4: Q99M01 (protein, UniProt Q99M01 1-451, looked up)
chain: MVCLALVRAAYEHIYLVRKVSHACRCHQHRAWSSKPAASQSAVQGAPGSVLEILGKSYPQDDHTNLTQKVLSKVGRNLHNQKFHPLWLIKERVKEHFYQQYMVRSRTPLFSVYDQLPPVVTTWQNFDSLLIPADHPSRKKGDNYYLNRAHMLRAHTSAHQWDLLHAGLNAFLVVGDVYRRDQIDCQHYPVFHQLEGVRLFSKHELFAGVKDGESLQLFEEGSRSAHKQETHTMEAVKLVEFDLKQVLTRLVTHLFGDGLEVRWVDCYFPFTHPSFEMEINFRGEWLEVLGCGVMEQQLVNSAGAQDRIGWAFGLGLERLAMVLYDIPDIRLFWSEDERFLKQFLLSDINQSVKFQPLSKYPAVFNDISFWLPSENYTENDFYDIVRTVGGDLVEKVDLIDKFEHPKTHRTSHCYRITYRHMERTLSQREVGNVHQAVQEAAVQLLGVEGRF
modifications: full-length
B5: Q99M54 (protein, UniProt Q99M54 1-266, looked up)
chain: MGSTQSVSGTPARPLPRNKQVARVADPRSPSAGIQRTPIQVESSPQPSLPAEQLNGLKQAQDPDPRSPTLGIARTPMKISGPDPQCSLVKELSEVLETEASESISSPELALPRETPLFYDLDLSSDPQLSPEDQLLPWSQAELDPKQVFTKEEAKQSAETIAASQNSDKPSRDPETPQSSGSKRSRRKANSKVLGRSPLTILQDDNSPGTLTLRQGKRPSALSENVKDLKEGVVLGTGRFLKAGGGAREPNQDHDKENQHFALLES
modifications: full-length

Tested on: intracellular proteome of ENR+CD and ENR organoids
Test: LC-MS/MS TMT proteomics of ENR+CD versus ENR organoids
Assay type: cell-based, C57BL/6 mice
Details: for Average logFC: ENR+CD versus ENR organoids, sample pairs in aggregate (n=4, 2 technical replicates from two biological donors); for M1-1 Log2 Median Normalized / M1-2 Log2 Median Normalized / M2-1 Log2 Median Normalized / M2-2 Log2 Median Normalized: protein abundance ratio ENR+CD versus ENR organoids, LC-MS/MS TMT proteomics; for M1-1 Log2 Median Normalized: sample pair M1-1; for M1-2 Log2 Median Normalized: sample pair M1-2; for M2-1 Log2 Median Normalized: sample pair M2-1; for M2-2 Log2 Median Normalized: sample pair M2-2; for change: up = enriched in ENR+CD, down = enriched in ENR, FDR<0.05 and log fold change cut-off

| Molecule | Average logFC | M1-1 Log2 Median Normalized | M1-2 Log2 Median Normalized | M2-1 Log2 Median Normalized | M2-2 Log2 Median Normalized | change |
| --- | --- | --- | --- | --- | --- | --- |
| B1 | 1.289 | 1.314 | 1.577 | 1.1265 | 1.14 | up |
| B2 | – | −1.606 | −1.392 | −2.1105 | −1.558 | down |
| B3 | −1.212 | −1.61 | −1.013 | −0.7435 | −1.481 | down |
| B4 | −1.171 | −0.869 | −0.578 | −1.7495 | −1.486 | down |
| B5 | – | −1.383 | −1.488 | −0.4185 | −1.548 | down |
